To fix the notation:
T1: SLAM-Fc (UniProt Q13291 21-237)
T1 sequence: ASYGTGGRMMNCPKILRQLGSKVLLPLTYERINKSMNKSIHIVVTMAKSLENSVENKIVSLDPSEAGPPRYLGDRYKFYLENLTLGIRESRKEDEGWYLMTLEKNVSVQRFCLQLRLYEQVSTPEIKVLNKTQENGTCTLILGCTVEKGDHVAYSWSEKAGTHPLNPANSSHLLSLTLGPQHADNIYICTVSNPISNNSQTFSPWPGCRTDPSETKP

B1: recombinant soluble MeV-H H1 (other)
chain: RLHRAAIYTAEIHKSLSTNLDVTNSIEHQVKDVLTPLFKIIGDEVGLRTPQRFTDLVKFISDKIKFLNPDREYDFRDLTWCINPPERIKLNYDQYCADVAAEELMNALVNSTLLETRTTNQFLAVSKGNCSGPTTIRGQFSNMSLSLLDLYLSRGYNVSSIVTMTSQGMYGGTYLVEKPNLNSKGSELSQLSMYRVFEVGVIRNPGLGAPVFHMTNYFEQPISKDLSNCMVALGELKLAALCHGGDSITIPYQGSGKGVSFQLVKLGVWKSPTDMHSWVPLSTDDPVIDRLYLSSHRGVITDNQANWAVPTTRTDDKLRMETCFQQACKGKIQALCENLEWAPLKDSRIPSYGVLSVDLSLAAEPKIKIASGFGPLITHGSGMDLYKSNHNNVYWLTIPPMKNLALGVINTLEWIPRLKVSPNLFTVPIKEAGEDCHAPTYLPAEVDGDVKLSSNLVILPGQDLQYVLATYDTSRVEHAVVYYVYSPSRSFSYFYPFRLPIKGTPIELQVECFTWAQRLWCRHFCVLADSESGGHLTHSGMVGMEVSCTVNREDEANRR
B2: recombinant soluble MeV-H Δ8 (other)
chain: RLHRAAIYTAEIHKSLSTNLDVTNSIEHQVKDVLTPLFKIIGDEVGLRTPQRFTDLVKFISDKIKFLNPDREYDFRDLTWCINPPERIKLNYDQYCADVAAEELMNALVNSTLLETRTTNQFLAVSKGNCPGPTTIRGQFSNMSLSLLDLYLSRGYNVSSIVTMTSQGMYGGTYLVGKPDLNSKGSELSQPSMYRVFEVGVIRNPGLGAPVFHMTNYFEQPISKDLSNCMVALGELKLAALCHRGDSITIPCRGSGKGVSFQLVKLGVWKSPTDMHSWVPLSTDDPVIDRLYLSSHRGVITDNQANWAVPTTRTDDKLQKETCFQQACKGKIQALCENLEWAPLKDSRIPSYGVLSVNLSLAAEPKIKIASGFGPLITHGSGMDLYKSNHNNVYWLTIPPMKNLALGVINTLKWIPRLKVSPYLFTVPIEEADEDCRAPTYLPAEVTGDVKLSSNLVILPGQDLQYVLATYDTSGVEHAVVYYVYSPGGSFSYVYPFRLPIKGTPIELQVECFTWAQRLWCRHFCVLADSESGGHLTHSGMVGMEVSCTVNREDEANRR
B3: CD46-Fc (Fc fusion)
chain: CEEPPTFEAMELIGKPKPYYEIGERVDYKCKKGYFYIPPLATHTICDRNHTWLPVSDDACYRETCPYIRDPLNGQAVPANGTYEFGYQMHFICNEGYYLIGEEILYCELKGSVAIWSGKPPICEKVLCTPPPKIKNGKHTFSEVEVFEYLDAVTYSCDPAPGPDPFSLIGESTIYCGDNSVWSRAAPECKVVKCRFPVVENGKQISGFGKKFYYKATVMFECDKGFYLDGSDTIVCDSNSTWDPPVPKCLKVLPPSSTKPPALSHSVSTSSTTKSPASSASGPRPTYKPPVSNY
notes: range 35-328
B4: SLAM-Fc (Fc fusion)
chain: T1 sequence

The target of experiment [1] is recombinant soluble MeV-H A (vaccine strain) (measles virus).
Experiment [2] has as its target T1, SLAM-Fc. Nature of the experiment: ELISA, receptor-Fc titrated on plastic-bound MeV-H; one-site fit, apparent Kd. On the technique in general: An ELISA detects its analyte on a solid surface through an enzyme-linked reagent.
The target in experiment [3] is T1, SLAM-Fc. The experiment is described as follows: ELISA, receptor-Fc on plastic-bound MeV-H.
The experiment “CD46-Fc” concerns the target B3. The experiment is described as follows: ELISA, receptor-Fc titrated on plastic-bound MeV-H; one-site fit, apparent Kd (half-saturating concentration).
The target in experiment [4] is B2. Nature of the experiment: ELISA, receptor-Fc titrated on plastic-bound MeV-H.
Experiment [5] addresses recombinant soluble MeV-H A (vaccine strain) (measles virus). Nature of the experiment: ELISA, receptor-Fc titrated on plastic-bound MeV-H; one-site fit.
The target is the same in experiment [6]. Nature of the experiment: ELISA, receptor-Fc titrated on plastic-bound MeV-H; one-site fit, apparent Kd.

Read-outs that look alike come from different tables or passages of the source.

As to “nectin-4-Fc (from UniProt Q96NY8 32-349) (Fc fusion)”, the Bmax in experiment [1] was 1.56.
Turning to “CD46-Fc (from UniProt P15529 35-328) (Fc fusion)”, the Kd in experiment [1] stood at 819 µM.
In the case of B1, in the experiment with SLAM-Fc [2], the Kd turned out to be 10.4 µM.
For the molecule B2, the binding result in the experiment with SLAM-Fc [3] is on record as “no binding”. Moreover, the Kd in the experiment with CD46-Fc was 0.00019 µM.
Take B3: in experiment [4], the “fold better binding than MeV-H A and H1” value was around 4000 fold.
Turning to B4, in experiment [5], the Bmax was determined as 2.09. The Kd in experiment [6] is 2.68 µM.

These data come from patent US20220118080A1 (MAYO FOUNDATION FOR MEDICAL EDUCATION AND RESEARCH, published 2022).
